Residue numbers refer to the chain shown, from its start.

First the molecules themselves.
B1: C2G4 scFv 단백질 (scFv)
scFv: EVQLLESGGGLVQPGGSLRLSCAASGFTFSNYAMSWVRQAPGKGLEWVSGIPPDSGSKYYADSVRGRFTVSRDNSKNTLYLQMNSLRAEDTAVYYCAKNMLSFDYWGQGTLVTVSSGGGGSGGGGSGGGGSQSVLTQPPSASGTPGQRVTISCTGSSSNIGSNAVSWYQQLPGTAPKLLIYYNSKRPSGVPDRFSGSKSGTSASLAISGLRSEDEADYYCGSWDPSLNGYVFGGGTKVTVLG
B2: MS501 scFv 단백질 (scFv)
scFv: EVQLLESGGGLVQPGGSLRLSCAASGFTFSNYAMSWVRQAPGKGLEWVSGIYPDSGSTYYADSVKGRFTISRDNSKNTLYLQMNSLRAEDTAVYYCARNIYTFDYWGQGTLVTVSSGGGGSGGGGSGGGGSQSVLTQPPSASGTPGQRVTISCSGSSSNIGSNAVSWYQQLPGTAPKLLIYYNNQRPSGVPDRFSGSKSGTSASLAISGLRSEDEADYYCGSWDSSLSGYVFGGGTKLTVLG
B3: MS503 scFv 단백질 (scFv)
scFv: B2 scFv with G50S, D54G, S55D, R98K, I100A, Y101F, N184S, Q185H, S222T

The target of the test is 메소텔린 (MIA PaCa2-MSLN 세포에 과발현) (UniProt Q13421). The test is described as follows: flow cytometry on MIA PaCa2-MSLN cells; 1 μg scFv, anti-6xHis tag detection. For orientation: Flow cytometry measures light scatter and fluorescence of single cells or particles in a stream.
Turning to B1, the percent of cells bound is > 68%.

Consider B2, for which the percent of cells bound is > 68%.

Take B3: the percent of cells bound is > 68%.

Values taken from patent KR20200090598A.
